In patent US7727968B2, “Combination therapy for the treatment of acute leukemia and myelodysplastic syndrome” (priority 2002, dated 2010):
Structures can show the parent of a compound that is named as a salt.

Tests used:
[1] = tested on: patients with relapsed, refractory, or de novo AML; assay: Phase 1/2 study combining gemtuzumab ozogamicin with cytarabine and daunorubicin (Example 1); conditions: in the triple combination
Description: The maximum tolerated dose was determined to be cytarabine 100 mg/m^2/day by continuous infusion on days 1 through 7, daunorubicin 45 mg/m^2 by intravenous bolus on days 1 through 3, and gemtuzumab ozogamicin 6 mg/m^2 by 2-hour infusion on day 4.
A detailed safety and efficacy evaluation was performed on the first 19 patients treated with this combination induction regimen and subsequently followed for at least 28 days. There were sixteen men and three women enrolled with a median age of 46 years (range, 20 to 60). One, ten, and three patients were categorized in favorable-, intermediate- and poor-risk cytogenetic groups, respectively. Cytogenetic analysis was not available for five patients.

[2] = tested on: adult acute nonlymphocytic leukemia; conditions: used as a single agent; cited from earlier work
[3] = tested on: patients with poor prognosis AML; conditions: refractory AML; single dose GO 9 mg/m^2 three days prior to first pulse of chemotherapy; cited from earlier work
patients with AML = conditions: cited from earlier work
[4] = tested on: AML patients <60 years of age; conditions: cited from earlier work
AML patients = assay: UK safety study combining gemtuzumab ozogamicin with intensive chemotherapy before the MRC AML15 trial (Example 2); format: in vivo, human
Description: The feasibility of combining gemtuzumab ozogamicin with intensive chemotherapy for induction and/or consolidation was evaluated in 67 patients in a safety study in the United Kingdom prior to the start of the Medical Research […] AML15 trial. The aim was to combine gemtuzumab ozogamicin with chemotherapy planned in the trial, (DAT; Daunorubicin, AraC, Thioguanine, or DA; Daunorubicin AraC; or FLAG-IDA; Fludarabine, AraC, G-CSF, Idarubicin) as course 1. Course 1 was given using gemtuzumab ozogamicin in an amount of 3 mg/m^2 on day 1 of chemotherapy in 55 patients. Thirty-three patients received gemtuzumab ozogamicin with DAT. Eight patients received gemtuzumab ozogamicin with DA. Fourteen patients received gemtuzumab ozogamicin with FLAG-Ida. Of the 55 patients treated, 41 […] entered complete remission with course 1 broken down as follows: […] DAT=26/32; (2) DA=7/8; and (3) FLAG-Ida=8/8. Prior experience in a separate trial designated MRC AML12 where 720 patients were treated with H-DAT alone in course 1, 64% of those patients achieved complete remission. In the present study, the median time to ANC recovery (1×10^9/l) was 27 days (range 9-54) and platelets >100×10^9/l was 30 (range 21-48) which is within the mean+ISD of the 720 patients treated with H-DAT alone in the MRC AML12 trial. Non-hemopoietic toxicity was confined to the liver. Overall the maximum toxicity was Grade 1=5 patients, Grade 2=22 patients, Grade 3=13 patients and Grade 4=10 patients. Of the Grade 3 and 4 toxicities, 7 were felt to be definitely associated with gemtuzumab ozogamicin therapy. A possible contributory factor was the inclusion of Thioguanine. Of the 39 recipients where Thioguanine was included in the schedules, 22 developed Grade 3 or 4 liver toxicity compared with 1 for 16 recipients of non-Thioguanine schedules. […]
The overall survival of all patients receiving gemtuzumab ozogamicin in a dose of 3 mg/m^2 with course 1 at 6 months is 73% and at 12 months is 68%. For the patient receiving non-Thioguanine induction with 3 mg/m^2 of gemtuzumab ozogamicin, the 6 month survival is 91%.

[5] = GO 3 mg/m^2 with course 1 chemotherapy
[6] = all patients receiving GO 3 mg/m^2 with course 1

## Nc1ccn([C@@H]2O[C@H](CO)[C@@H](O)[C@@H]2O)c(=O)n1 [cytarabine, 4-amino-1-(beta)-D-arabinofuranosyl-2(1H)-pyrimidinone]
[1]; continuous infusion days 1 through 7
  maximum tolerated dose: 100 mg/m^2/day

## COc1cccc2c1C(=O)c1c(O)c3c(c(O)c1C2=O)C[C@@](O)(C(C)=O)C[C@@H]3O[C@H]1C[C@H](N)[C@H](O)[C@H](C)O1 [daunorubicin hydrochloride, (1 S,3 S)-3-Acetyl-1,2,3,4,6,11-hexahydro-3,5,12-trihydroxy-10-methoxy-6,11-dioxo-1-naphthacenyl 3-amino-2,3,6-trideoxy-(alpha)-L-lyxo-hexopyranoside hydrochloride]
[2]
  complete remission rates: 40 to 50%

## COc1cccc2c1C(=O)c1c(O)c3c(c(O)c1C2=O)C[C@@](O)(C(C)=O)C[C@@H]3O[C@H]1C[C@H](N)[C@H](O)[C@H](C)O1 [daunorubicin, (8S-cis)-8-acetyl-10-[(3-amino-2,3,6-trideoxy-(alpha)-L-lyxo-hexopyranosyl)oxy]-7,8,9,10-tetrahydro-6,8,11-trihydroxy-1-methoxy-5,12-naphthacenedione hydrochloride]
[1]; intravenous bolus days 1 through 3
  maximum tolerated dose: 45 mg/m^2

## gemtuzumab ozogamicin: recombinant humanized IgG4, kappa anti-CD33 antibody conjugated with N-acetyl-gamma calicheamicin via a bifunctional linker
[3]
  patients entering complete remission: two of four
Patients with AML; patients who did not undergo stem cell transplantation
  increased risk of developing significant hepatotoxicity: ≤ 10%
Patients with AML; patients with relapsed AML
  response rate: < 40%
[4]; GO 6 mg/m^2 dose with H-DAT or S-DAT
  liver toxicity: increased liver toxicity
[4]; with H-DAT or S-DAT induction, one patient died
  toxicity in patients receiving GO in courses 1 and 2: delayed hematological recovery and VOD
[1]; 2-hour infusion on day 4
  maximum tolerated dose: 6 mg/m^2
AML patients; GO 3 mg/m^2 in course 1 and GO 3 mg/m^2 in course 3, twelve patients
  feasibility: appears to be feasible
AML patients; GO 3 mg/m^2 on day 1 of chemotherapy (DAT, DA or FLAG-Ida), 41 of 55 patients treated
  complete remission with course 1: 85%
AML patients; [5]
  Grade 3 and 4 toxicities felt to be definitely associated with gemtuzumab ozogamicin therapy: 7
  maximum liver toxicity Grade 1: 5 patients
  maximum liver toxicity Grade 2: 22 patients
  maximum liver toxicity Grade 3: 13 patients
  maximum liver toxicity Grade 4: 10 patients
AML patients; GO 3 mg/m^2 with course 1 chemotherapy, range 9-54
  median time to ANC recovery (1×10^9/l): 27 days
AML patients; GO 3 mg/m^2 with course 1 chemotherapy, range 21-48
  median time to platelets >100×10^9/l: 30 days
AML patients; Thioguanine included in the schedules, 39 recipients
  recipients developing Grade 3 or 4 liver toxicity: 22
AML patients; [6]
  overall survival at 6 months: 73%
  overall survival at 12 months: 68%
AML patients; non-Thioguanine induction with GO 3 mg/m^2
  6 month survival: 91%
AML patients; non-Thioguanine schedules, 16 recipients
  recipients developing Grade 3 or 4 liver toxicity: 1
